Experimental findings from US20100041875A1 are described below.

The target in test [1] is wild-type JR-FL SOS gp140 (trimer) (HIV-1 isolate JR-FL (subtype B)) (UniProt P20871). The experiment in a line: SPR (BIAcore X): agent captured via Fc on protein G chip, 5 nM purified gp140 trimer injected. On the technique in general: Surface plasmon resonance follows binding to a sensor surface in real time, without labels.
The target in test [2] is JR-FL gp41 NT 1-5 SOS gp140 mutant (trimer) (HIV-1 isolate JR-FL (subtype B)) (UniProt P20871). Described as above.
The target of test [3] is full-length WT JR-FL (gp160) Env (JR-FL WT) (HIV-1 isolate JR-FL (subtype B)) (UniProt P20871). In words: cell-based or functional assay.
Test [4] concerns the target JR-FL gp41 NT 1-5 mutant Env (full-length gp160) (HIV-1 isolate JR-FL (subtype B)) (UniProt P20871). In words: cell-based or functional assay.
Test [5] has as its target wild-type JR-FL SOS gp140 (trimer) (HIV-1 isolate JR-FL (subtype B)) (UniProt P20871). In words: SPR (BIAcore X): 17b captured via Fc on protein G chip, 5 nM gp140 trimer pre-incubated 1 h with 6-molar excess D1D2-CD4.
In test [6] the target is JR-FL gp41 NT 1-5 SOS gp140 mutant (trimer) (HIV-1 isolate JR-FL (subtype B)) (UniProt P20871). The test is described as above.
For test [7], the target named is wild-type JR-FL SOS gp140 (trimer) (HIV-1 isolate JR-FL (subtype B)) (UniProt P20871). The experiment in a line: SPR, with against without D1D2-CD4.
In test [8] the target is JR-FL gp41 NT 1-5 SOS gp140 mutant (trimer) (HIV-1 isolate JR-FL (subtype B)) (UniProt P20871). In words: SPR, with against without D1D2-CD4.
The target in test [9] is wild-type JR-FL SOS gp140 (trimer) (HIV-1 isolate JR-FL (subtype B)) (UniProt P20871). In words: SPR (BIAcore X): agent captured via Fc on protein G chip, 5 nM purified gp140 trimer injected, no CD4.
The target in test [10] is JR-FL gp41 NT 1-5 SOS gp140 mutant (trimer) (HIV-1 isolate JR-FL (subtype B)) (UniProt P20871). Described as above.

With monoclonal antibody (MAb) PA-1, the Mean RU at end of injection (t = 180 s) came out at 242 RU in test [1] and 123 RU in test [2]. Further, the neutralization of Env-pseudotyped virus infectivity (U87.CD4.CCR5 cells), mean IC50 in test [3] and in [4] was > 50 µg/mL throughout.
With MAb 2F5 (antibody), the Mean RU at end of injection (t = 180 s) in [1] was determined as 191 RU; in test [2], 216 RU. In addition, the figures for the neutralization of Env-pseudotyped virus infectivity (U87.CD4.CCR5 cells), mean IC50 in [3] and in test [4] were 6.2 µg/mL and 5.9 µg/mL, respectively.
As for MAb A32 (antibody), the neutralization of Env-pseudotyped virus infectivity (U87.CD4.CCR5 cells), mean IC50 in test [3] and in [4] was > 50 µg/mL each time.
MAb 17b (antibody): the Mean RU at end of injection (t = 180 s) in test [5] came out at 237 RU; in test [6], 399 RU; in test [9], 39 RU; in test [10], 14 RU. The fold induction of 17b binding by D1D2-CD4 came out at 5 fold in test [7] and 25 fold in [8]. For the same substance, the neutralization of Env-pseudotyped virus infectivity (U87.CD4.CCR5 cells), mean IC50 in test [3] and in test [4] was > 50 µg/mL each time. Besides, the figures for the neutralization of Env-pseudotyped virus infectivity in the presence of sCD4 (17b + sCD4), mean IC50 in test [3] and in [4] were 25.9 µg/mL and 15.2 µg/mL, respectively. For the same substance, in test [4], the neutralization in the presence of sCD4, fold against the WT virus came out at 2 fold.
Turning to MAb 15e (antibody), the neutralization of Env-pseudotyped virus infectivity (U87.CD4.CCR5 cells), mean IC50 in [3] and in test [4] was > 50 µg/mL throughout.
As to MAb b12 (antibody), the Mean RU at end of injection (t = 180 s) came out at 223 RU in test [1] and 195 RU in test [2]. The neutralization of Env-pseudotyped virus infectivity (U87.CD4.CCR5 cells), mean IC50 turned out to be 0.15 µg/mL in test [3] and 0.17 µg/mL in [4].
MAb F425-B4e8 (antibody): the neutralization of Env-pseudotyped virus infectivity (U87.CD4.CCR5 cells), mean IC50 in [3] amounted to 2.94 µg/mL; in test [4], 2.64 µg/mL.
In the case of “CD4-IgG2 (PRO 542) (from UniProt P01730 26-204) (Fc fusion)”, the results for the Mean RU at end of injection (t = 180 s) in [1] and in [2] were 212 RU and 224 RU, respectively. The neutralization of Env-pseudotyped virus infectivity (U87.CD4.CCR5 cells), mean IC50 in test [3] amounted to 0.82 µg/mL; in [4], 0.74 µg/mL.
In the case of T-20 (Enfuvirtide) (peptide), in test [3], the IC50 of neutralization, fold against the mutant is 2 fold and the neutralization of Env-pseudotyped virus infectivity (U87.CD4.CCR5 cells), mean IC50 came to 24.2 nM. This substance returned a neutralization of Env-pseudotyped virus infectivity (U87.CD4.CCR5 cells), mean IC50 in test [4] of 11.5 nM.
MAb b6 (antibody): the Mean RU at end of injection (t = 180 s) in [1] amounted to 391 RU; in test [2] it was 233 RU. Further, the neutralization of Env-pseudotyped virus infectivity (U87.CD4.CCR5 cells), mean IC50 in test [3] and in test [4] was > 50 µg/mL in each case.
MAb 4E10 (antibody): the results for the Mean RU at end of injection (t = 180 s) in [1] and in test [2] were 83 RU and 94 RU, respectively. The neutralization of Env-pseudotyped virus infectivity (U87.CD4.CCR5 cells), mean IC50 in test [3] was determined as 13.4 µg/mL; in [4] it was 14.1 µg/mL.
